Data published in paper PMC3114041, “Architectures of archaeal GINS complexes, essential DNA replication initiation factors” (BMC Biology, 2011).
One block for each molecule: values may come before it.

Experiments:
[1] = target: Thermococcus kodakaraensis Gins51ΔC (Met1-Arg130) (Thermococcus kodakaraensis); assay: SEC; Superdex 200 PC 3.2/30 on a SMART system; 50 mM Tris-HCl pH 8.0, 0.15 M NaCl, 7 mM β-mercaptoethanol, 0.1 mM EDTA; 20 μl of each protein at 20 μM; fractions on SDS-PAGE
[2] = target: the molecule itself; assay: as above
[3] = target: the molecule itself; assay: SEC + other: electron microscopy; data not shown (Ogino et al.)

- stoichiometry N [1]: 2
Molecule: Thermococcus kodakaraensis Gins51ΔC (Met1-Arg130) (domain or fragment)

B1: Thermococcus kodakaraensis Gins51 (natural protein, UniProt Q5JF31 1-188, looked up)
chain: MDIVKLRELLEAELSSTDLNELDEDFYVEFDSLIKALKLSAESSRERGEDVEERLYLAQLKIAESLMKEIIKLRLHKIVDLAVEGKIAEMTAEEKRLFNVIRAFIEREELPEISEEVQPQEESEAEAEYRSKEVPKEAYIIQIDLPAVLGPDMKEYGPFMAGDMAIIPTVIGRALVEREAARRVRIFL
notes: Gins51 subunit of the GINS complex of Thermococcus kodakaraensis; gins51 gene cloned into pET21a; also called TkoGins51; AB-type subunit of TkoGINS; source: E. coli codonPlus (DE3)-RIL, co-expressed with Gins23, purified (heat 80°C, HiTrap Phenyl, hydroxyapatite, HiTrap Q)
- stoichiometry N [2]: 2

B2: Thermoplasma acidophilum GINS subunit (TacGins) (natural protein, UniProt Q9HJC8 1-233, looked up)
chain: MKPADIDKLISEIRTAIYAEQSHRKIIEIDPDIYRKVRAALSDLQAEASEYFQKQDIENYLTMNNRFQTLKRDFRSLFQRRFEKIVAKAIYDISGETLSLLTDEEKEFIEKIHNIITEEFESFIPKREEKNEARAEAQPAPADESPTAIADQKPQEEPQVVQDQHQPPAEIPSENIEIKKEDGRYVLVMITEDLPPIAQLDRNYSLHSNDLVYLPQDLASILAKRKVALVLDQ
notes: TacGins, conserved hypothetical protein of Thermoplasma acidophilum, gene Ta1042 cloned into pET21a; the homology model counts residues 1 to 233; also called Ta1042; source: E. coli BL21 codonPlus (DE3)-RIL, purified (heat 60°C, polyethyleneimine, HiTrap Phenyl, HiTrap Q)
- stoichiometry N [3]: 4

B3: Thermococcus kodakaraensis Gins23 (natural protein, UniProt Q5JIT2 1-164, looked up)
chain: MFTGKALIAVKVMKPFGDWKSGDIVLVEDWKARELWEAGVVEIVDETDKIIGEIDKVIAEERESEPLTLLPEGLYERAEFYAYYLENYVRLNPRESVDTINVKLTKLANLRKKLRDLKLIRFNKILKAVMLRPNSLELLSRLAPEERRIYLQMSKIRNEWLGDA
notes: Gins23 subunit of the GINS complex of Thermococcus kodakaraensis; gins23 gene cloned into modified pET28 (thrombin site replaced by a TEV protease site); 94 to 100 and 132 to 133 missing); The final atomic model holds seven amino acids derived from the N-terminal tag; also called TkoGins23; BA-type subunit of TkoGINS; source: E. coli codonPlus (DE3)-RIL, co-expressed with Gins51, purified (heat …
- stoichiometry N [2]: 2
